Experiment: protease stability score; higher = more stable; yeast display proteolysis, trypsin and chymotrypsin;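 further: relative to predicted unfolded state with 0 unfolded-like and 1 meaning tenfold more protease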

Sequence	protease stability score
DSDEEATKDFLEILIKLEMTGNEEEMRKMLDPNVRLIIDGVNLHGREALNVYLERFKNIQVEEIRIRHIEFQGEKVKIDYEWTVRINGRHHHQRTTIILIKYDGRWIIHMIHWH	2.55
DSDHHRAYEYAEFFIEWHETGNEDVLTELLDPHVRLIVDGQHYHGRDLIVRFLVQWRIHRFHIHDVKSIGEYIRVDTHVDMEFDGKRIITQVELVIIKINGRWRYKHISIP	1.22
DSDQSKREMDKFLEMVSTGDPDEVNRLLDKDAHAHVGDQTYHGREEISHMWKELREKIDHLEVHDYKVNGNKLEVDMHATINGQNVVFTVVAVLRNGHFESVEVQYRSEEEEEKVKR	0.776
DSEEEDARRALQEFLEHLATGNWEVLTKMMDPNTRLDVDGRDIHGWDEVKHHLKEMRVTIDHLHIERYIVQGEKVDIRGRVHILKEFDGKVLRHDRHVRIIFEKVDGRWIIHKIEHR	1.99
DSEEKDQRKASELTMRLLKTGNEDLMSHFFDPDTKVTIGDKEYHGREVLSHLLWEEKERIKGMRFEIKDLHVRYIGDKIRVESHVVLEINGVTLDTELIFHAEKVDGRWLSRSFEVRIT	-0.023
DSEEKWDREFVKDFVHNEKTGDEERLKELMDPHAILLIDINGREIRHHGREAMTEEVDRFLKHAGVDHMDIHDVKIQGDKVRVDIRIEIGDKRQKSHIIIEKINGQWRVTQIHIHVE	0.989
DSEHEEAKTFVKELDKSIETGDEEKLKELLDPHTLIIVGDKFRIGWEWMANKISQIRIHMETRIRDVEHQGDKMIVHTDVRIDINVDGKKIHEQRDIHLIIRKVNGQWILKEIEIR	1.36
DSHEETNKFFFELTTHALETGDFDFLKKLADPHVRLNIDGRDTIGMDFLLRLWRELGFKHQHLKDMKIYGNWTYLDMHLHFNGREHDIHLNFKIFNGQMESIDVHIR	1.32
DSHRELLERFARLMLHLWLTGDEDELHKYMDPHVRYHQGEFHIHGREEVTRWASELHKKLGINHEDQERVNIYDGKNHVDTRLDINGRHLRVELRIDVWNGRIREVQVHHR	1.41
DSHYHLFIYNMELLSTLLKTGDEHRNTEMFDPHVRIVVGEKEIHGREDVEKYLREIRIEEMRFHLRRLDVQGEKVTVEGELRIRFWIGDKEHEHNEDARIHLLKINGRWRLKEIESK	2.43
DSLEDIFKLAVDDLEFLYETGDEEMTSQMADPNVRVIFNGRDFWGWHYLLKIFSELIKKLGIDHIRLEIDHVHLQGDKVDIHGTLRNHIGDFIFVHHTTHFLVKIDGRWFIRSVKIR	2.15
DSLEEMTRKWFEKWVRDLKTGDEQSMTELADPHVRFLQGDKEYHGRELFTELESEKRKRFDHLELRLHSMEVQGDKLHIDSRMILKIGDFVLKLNVYLHVLKIDGRWLLEEIRIK	0.704
DSLEKHTEDSLRFFLHILRTGDEEELSDLLDPRTRYEFNGKEFHGREQVVEVLIRLAEHIRIEELHVTHVEVYGDKVNSETLLIVDVDGQKRILHTRVLATKVNGKWLFQRIRIV	2.17
DSLHEKVEIMAHLLVEIIRTGNEEDWRRYVDPNVRIRIGDKDLHGREEAFRVVREIRIIVHDIKIRSLDVQGDKVESDVEVDVEFRIGDKVNRIHTRFRLIWTKVDGRWINESMSIE	2.61
DSSENFMRHMMEEVWNALVTGDEKLFQRLADPDVRLHFNGVHTHGRENVLTFLRSLDEHLGVKHRSIHDFTIVGDYSHIDTTMEVGDKHWRIHLFLVIIDGRVHHIEIRIE	2.23
DSVEELAKRSVELLLRLLKTGDEEEISRLADPDTRLVIGEFEFHGMEKVEHSWRKMGFTIHEWRIHDVEVQGDKLIVHVHQNIEFNGVHEEFRSIIIARKINGRWRLKSLHWK	1.67
DTDAVRRALKFIDAMQDGDPDKARELMDPNARVNIGDKEYHGMTSFVKDLKRLRDEIRVQYNIRDYNAQGEKIHVTVDVVFEHNGRPVDERFNVTIDIQGDKIKQVTAHRTK	1.5
DTDKKHIQNVLRLLSTLEHTGDWEALKELADPNVRVVVNGQEIHGRDMFNKHFEELRINDSRMILRDFEVQGDKIHVEGEVEFDGIIDGREKRFVRHVRIINVKIDGRWVIREIQVR	1.62
DTDQTLFEDYAKMYMKDLLTGDFESIEKYADPRVQVHIGDKEIHGREIFVKYLWEHNEQVDHRQFHFKDVDHFDGKIHVHMEMHIDVNGKLINEKLHVIIWKFNGRWIMKSVHHR	0.78
DTDTHTVKEFIRALVESSRTGDEDLLRDFADPRMRIDIDGRIFHGRENALRWLSELRIEEVRIDHVTIVDGRLHVDVTYRGDINGQHTETRVILIILKVNGRWRMHYIEVR	1.55
DTEDHLSHRVLEYHQEVEKTGDWHELFNNIDPHARMSVGDKRYHGMESMSKWLSRIKNAKIDEEHIEIQGNKIILHGTINVDGVRIESIILSLKVDGRWLRKEVRFH	0.19
DTEDKLSEEALKDLLEKVKTGDPQVMEELADPEVKVDIGDKNLHGREEYTRWVEKLWKRVPNLKLEIDHVEFQGDYVLIEGRIIYNGRKHKIKIHSLKIDGRWLIETVRIR	1.39
DTEEEILKQYLELLRRQHATGDEDSIKHLVDPNVRNDVNGVDIHGRDRMREWIERHRHNLGIDHIEIRITDLHIIDGRIHLDVRVFYRVDGRTIHMEIYVVLVKVDGRWSVKSRHLH	0.911
DTEEKELQKSLKELVTAVQTGDFKLLKELFDPHVRIDIGDKNVIGREEFSRFQKEEMEKWGVSRFTFDMEIHRYEIQGNKAYVDALNREEINGQEIHFNVDLFIHKINGKWLITEIRNK	0.494
DTEEKLARDIVRIVSELIFTGNEQDLKRLHDPRVRLEVLFENHYLEFHGWEDYLEWLEEWRNHMRMKEIHVHTLQVYGNKARDEVHTVVHIGDKRIETRMHFIVVVINGRIKYISVHIE	1.9

Sequence	protease stability score
DTEERLLHEMLRYLLEWFITGDEELFARLADPNTRTNVNGRHFHGREEMARLLEKWWRDFGVKHVHIEHTRVQGDYLHIDTRLHIGDKDLHVHFKLLVIDGRIRSLEIIIR	0.689
DTEKYLYDFALRLHIHAHETGNFDQLIKNLDPHYRIDINGQIFHGREWVEREYKRAGIDKFELQHFEVKHEHVQGDFLIMDGKLEGNFNGVRINTRVEIYHEKFDGQWKIREVHHR	0.185
DTEQKHVLHLLDEVLHNILTGDWDRIDELMDPNVRVIIGEWDHHGRSYFRELHHLLMLKLGVDHRHIKIQDKDAQGEYAVAHTHLELRIGDKRETYQTRLIVSVVNGKIEEIRIHIG	0.877
DTIERFVRHSFNLFVKQLETGDEHTLEKMADPHVRLEYGDKEYHGREEFKRQMHEIRFKRLELKRIEIQGEWAIMHGEDDGHFNGVDMKLESTEIAVKVNGRWYLKSFILK	1.41
DTSFTILEEVIKLFIEASETGDERVIQHLFDPNVRFRVDGKDFHGMDWLLEHFSHLRLHDIQITHVHIYNGRVEVTGHVRGNFDGQEKVHNTHILLRKIDGKWRIEHISMK	1.41
DTTEKHQKDMARAQIHSLETGDFKELMELLDPNVRFEFEVGDKRIERHGRELMVHFILKEYEEIRIRIDSWRVVNGVVKIELRLHVGDKESRIEIYLLIINGQAKSVHFDVR	1.09
DTVTEMDRHIFEHLLHLWKTGDWKRMTELFDPHARSVFNGRELHGRKSMQEAIEIIVRRADHIELHIRSLDVVDGQIDLDGELILIVGDKKIVHETHIHIHVYNGQVTELSFQIV	0.585
DVEEEYRHVMEEVHKHAMKTGDEQDILHLMDPNARFEVDGKIYIGREWLRRFVDILGVSRIHLHDLKIKDYRIIGNKIEVDGNIDGIVGNKRHEIDSHVISEKIDGRWIIKREKHR	0.324
DVEQEISKTLVHLWVFALLTGDEHLIRKLADPHVRLDIDGVTIVGMDLVAKRITELRIERFTIEDVKFEIQGDKLISIMDTKVDGRIGDKRIETRVIILLIFEKIDGRWQLSTSSEEKR	1.16
DYHEEIMRKVHEFFLAMVTTGDEEMIEKLFDPHVRIDINGRDHHGRDVAVKIWEELWREIRFKHVHLHDMKSFNGVLHLHVREKVDVNGRDLIIETHFVIRKFDGQWHLHSLKIN	1.38
EDDERELKLMLELLLHSQHTGDFKEAERLADPNARFEFNGREFHGREQFHSFIWKLGVDHSEVKRVRLQGEFLTLHIKHNVNGKEIDMIWYNVKVNGKWLIHHLEVR	1.21
EDEEQHTEELAHIFTEDYFTGDESSLERYLDPHVRLRIEYGDWEFSVHGRERAVDKIHWTMKQMGVKHVYLRHIRVQGDKVELNLELRVGDKVREQRIEIKVVNGRIKLVNIVIH	2.15
EDEERETEEAIRLFIKNEITGDWKRLLHYLDPNVRVRIGDKEIHGMERWKDEFKQEIDRVKGLRYELDDERRHLVDGKIEIILDFTIHVGEKRHRFQLVLILVKVNGRWIMHSIHVNYL	1.54
EDEKEFIERFARILLHARFTGDWKTLLELMDPNARITIEIGDKILEFHGMEQWIRENDKTEKKIKNITIHIEDMRIVNGVLEVDIHVHIGDKKYDFRIIVVVINGKVRQLEIKVE	2.08
EEAEQESKNFSEVVHRSLETGDEDNLMNNADPHVRSRIHVGDKRITSHGREVMELILERFKHARVVPTDIEVINGVAIIHMTMEYGDKELRIHLIFFKIDGKWILTHIIIRVD	0.056
EEDDEILEKAIRLHEHMLRTGDPREFWELADPHYKLNIGDKHIHGRETLLRHTLHKIEEYGFKHSRFVPKDWELQGDKIHLRGELILHFNGREHRYDYHIEAIKVNGQWVLHRIDIQ	1.23
EEDDKFSELAFNMLVESFKTGDEQHWRELADPRVKYQIDGRDLIGWTAFRRFLNEFGIDHMHIKLHDHRDYNGQVELDETLEIRYGDKTEHIKVTTIVHKINGQWIVKSFSVH	0.682
EEDDRDLEDLLTKLDSAIQTGNWEILHHLIDPHARSHYNGRDFHGWRDLEFLLRIIVEEIRLDTVDMKHHEFYGDKMRLETTLTGEVNGQKTEFTTVLIYLKIDGKWVIHNFEVR	0.729
EEDEEHIRKVIETFREMSETGDEDWSERMADPNARLIVGNKEFHGRERFNEWNRELTERIDHFEVRIRDFEIQGDKLILHVRITIIINGKDIETESHIIMKKVDGRWFMHSLHHK	0.752
EEDEEITKLYLEIILHIWLTGNEEELLRMFDPNARVDINGVINIGREDLLKRFHEHWRKYGAKHIRVRDIKFHIFNGVIYINLHLELIVGDKTFHVHLHMRSRKVDGRWHTHEFEERIN	1.69
EEDEEVAYHFMEEWFHYVHTGNEEMLERMLDPDVKLTFDGKEFHGRETVLRAIIEWRIEHVRIKDFRFKVINGRAEIRLDGERRGQIDGVKRETRIIIEINVHKVDGKWKIERVELHTL	2.1
EEDEEYLRKHYTDLKHALETGDEDRIMELFDPHVRIDDEDHNLHGREELFRWLHDLGIDHHELRIDDFKIDGDKVSIDGHLRVIVNGRDIHFRTIIRIKKVNGQWRLTHLEIR	1.94
EEDEHFAESYAEIMIHSWITGNEDLFEHLADPNWRLRVGDKEFHGREEATEFLIEFYERIDHFEIHIHDMKNIGEKLFIDGELNIHVNGRTIRHHTEIVIYTINGKVKSEEVRIK	1.95
EEDEKTAEEMMHIWIKYLMTGNEERLYKLVDPNARIEFNGRTDHGRESFTKFLRELGIKHSHIEEIRWDVQGEKVILTLHGRLDVNGVDRSNEILIIAEKVNGRWRVESVHLHLR	1.27
EEDFRLVDKFIKDFWKSFRTGDEDLFKKYLDPHVQLEVNGQEIHGREQLSRVLVELIIEFGVDHVEFRLHDWHIYDGQAEHHTHVRLKYGDKNVRRTLHIFMLKVDGRWILESMVIR	1.26

Reference: the NTF2 design screens of Basanta et al. (2020)
